Results as given in paper PMC10003451 (2023).
Where no end group is shown, it is not given here. [ ]: non-standard residue; d: D form. pT = C[C@@H](OP(=O)(O)O)[C@H](N)C(=O)O

Molecular target: recombinant protein phosphatase-1 catalytic subunit alpha (PP1cα) (UniProt P62136 1-330)
Test: ITC

Chain of recombinant protein phosphatase-1 catalytic subunit alpha (PP1cα) (P62136 whole entry): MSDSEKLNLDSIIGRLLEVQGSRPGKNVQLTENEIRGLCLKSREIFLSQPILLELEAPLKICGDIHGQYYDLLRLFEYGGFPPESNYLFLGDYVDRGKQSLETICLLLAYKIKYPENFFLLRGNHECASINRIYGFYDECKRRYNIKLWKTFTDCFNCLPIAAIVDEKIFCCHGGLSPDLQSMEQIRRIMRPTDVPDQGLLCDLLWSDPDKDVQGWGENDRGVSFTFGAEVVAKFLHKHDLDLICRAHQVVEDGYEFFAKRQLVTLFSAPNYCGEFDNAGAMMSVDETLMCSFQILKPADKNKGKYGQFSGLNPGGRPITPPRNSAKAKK

Question: Which Ka does the source give for RQSRRS[pT]QGVTL here?
Answer: 2.57e+06 M⁻¹
